Assays:
[1] = biological target: the molecule itself; experiment: SEC-MALS; fraction A1 of GephFL, 100 μL at 1.3 mg/mL, Superose 6 Increase 10/300 GL, 20 mM HEPES pH 8.0, 150 mM NaCl, 1 mM EDTA, 5 mM β-mercaptoethanol
[2] = biological target: the molecule itself; experiment: SEC-MALS; fraction A2’ of GephFL, 100 μL at 1.3 mg/mL, Superose 6 Increase 10/300 GL, 20 mM HEPES pH 8.0, 150 mM NaCl, 1 mM EDTA, 5 mM β-mercaptoethanol
[3] = biological target: the molecule itself; experiment: SEC-MALS; fraction B1’ of GephFL, 100 μL at 1.2 mg/mL, Superose 6 Increase 10/300 GL, 20 mM HEPES pH 8.0, 150 mM NaCl, 1 mM EDTA, 5 mM β-mercaptoethanol

B1: Full-length gephyrin, splice variant P1 (natural protein)
chain: MAHHHHHHGGSSGGSSEFMATEGMILTNHDHQIRVGVLTVSDSCFRNLAEDRSGINLKDLVQDPSLLGGTISAYKIVPDEIEEIKETLIDWCDEKELNLILTTGGTGFAPRDVTPEATKEVIEREAPGMALAMLMGSLNVTPLGMLSRPVCGIRGKTLIINLPGSKKGSQECFQFILPALPHAIDLLRDAIVKVKEVHDELEDLPSPPPPLSPPPTTSPHKQTEDKGVQCEEEEEEKKDSGVASTEDSSSSHITAAALAAKIPDSIISRGVQVLPRDTASLSTTPSESPRAQATSRLSTASCPTPKVQSRCSSKENILRASHSAVDITKVARRHRMSPFPLTSMDKAFITVLEMTPVLGTEIINYRDGMGRVLAQDVYAKDNLPPFPASVKDGYAVRAADGPGDRFIIGESQAGEQPTQTVMPGQVMRVTTGAPIPCGADAVVQVEDTELIRESDDGTEELEVRILVQARPGQDIRPIGHDIKRGECVLAKGTHMGPSEIGLLATVGVTEVEVNKFPVVAVMSTGNELLNPEDDLLPGKIRDSNRSTLLATIQEHGYPTINLGIVGDNPDDLLNALNEGISRADVIITSGGVSMGEKDYLKQVLDIDLHAQIHFGRVFMKPGLPTTFATLDIDGVRKIIFALPGNPVSAVVTCNLFVVPALRKMQGILDPRPTIIKARLSCDVKLDPRPEYHRCILTWHHQEPLPWAQSTGNQMSSRLMSMRSANGLLMLPPKTEQYVELHKGEVVDVMVIGRL
stoichiometry N [1]: ~6
stoichiometry N [2]: ~4
stoichiometry N [3]: 2
